# Measured values taken from patent publication US20230190810A1 (FRED HUTCHINSON CANCER CENTER, published 2023).
# Changes are numbered by the printed parent chain.
# B1: 8F5 antibody (murine CD33^V-set antibody) (antibody, V domains shown)
# VH: EVKLVESGGGLVQPGGSLKLSCAASGFTFSDFYMYWVRQTPEKRLEWVAFISNAGVTTYYPDTVEGRFTISRDNAKNTLYLQMSRLMSEDTAMYYCTKSDYDGAWFPYWGQGTLVTVS
# VL: DIVMSQSPSSLPVSVGEKVTLSCKSSQSLLYSRNQYNFLAWYQQRPGQSPKLLIYWASTRESGVPDRFTGSGSGTDFTLTISSVKAEDLAVYYCQQYYSYPYTFGGGTKLEIK
# notes: Murine hybridoma antibody
# B2: 1H7 antibody (murine CD33^PAN antibody, hybridoma clone and recombinant 1H7) (antibody, V domains shown)
# VH: QVQLQQSGAELVKPGASVKISCKASGYAFSNYWMNWVKQRPGKGLEWIGQINPGDGDTNYNGKFKGKATLTADKSSSTAYMQLSSLTSEDSAVYFCAREDRDYFDYWGQGTTLTVSS
# VL: DIQMTQTTSSLSASLGDRVTISCRASQDINYYLNWYQQKPDGTVKLLIYYSSRLHSGVPSRFSGSGSGTDFSLTISNLEQEDIATYFCQQDDALPYTFGGGTKLEIK
# notes: Murine antibody (captured on anti-mouse IgG in the Biacore run); both are treated as one molecule; also called clone 1H7
# B3: 6H9 antibody (murine CD33^PAN antibody) (antibody, V domains shown)
# VH: EVMLVESGGGLVKPGGSLKLSCAASGFTFSSYTMSWVRQTPEKRLEWVATISGDGGNTYYSDSVKGRFTISRDNAKNTLYLQMSSLRSEDTALYYCARQGTGTDYFDYWGQGTTLTVS
# VL: B2 VL with Y31I, S51T, F71Y, D91G, A93T, Y96W
# notes: Murine hybridoma antibody
# B4: 9G2 antibody (murine CD33^PAN antibody) (antibody, V domains shown)
# VH: EVKLVESEGGLVQPGSSMKLSCTASGFTFSDYYMSWVRQVPEKGLEWVASINYDGGSTYYLDSLKSRFIISRDNTKNILYLQMSSLKSEDTATYYCARDRGDGDYFDYWGQGTTLTVSS
# VL: B2 VL with R24K, A25T, N30Y, Y31N, S51T, S65G, F71Y, D91G, A93T, Y96W
# notes: Murine hybridoma antibody
# B5: 13E11 (antibody, V domains shown)
# VH: KVQLQQSGAELVKPGASVKLSCKASGYTFTDYTLHWLKQRSGQGLEWIGWFYPTSGSINYNERFKDKATLTADKSSSTVYMELSRLTSVDSAVYFCARHKFGFDYWGQGTTLTVSS
# VL: DIVLTQSPVSLAVSLGQRATISCKASHGVEYAGAHYMNWYQQKPGQPPKLLIYAASNLGSGIPPRFSGSGSGTDFTLNIHPVEEEDSATYYCQQSNEDPRTFGGGTKLEIK
# notes: also called 13E11 antibody; murine CD33^C2-set-specific antibody, clone 13E11
# B6: 2D5 antibody (murine CD33^PAN antibody) (antibody, V domains shown)
# VH: QVQLQQSGAELVRPGASVTLSCKASGYTFTDYDMHWVKQTPVHGLEWIGAIDPETGGTAYNQNFKGKAILTVDKSSRIAYMELRSLTSEDSAVFYCTSDYDYFGVWGTGTTVTVSS
# VL: DIVMTQSQKFMSTSVGDRVSVTCKASQNVGTNVVWYHKKPGQSPKGLIYSASDRYSGVPDRFTGSGSGTDFTLTINNVQSEDLAEYFCQQYNIYPYTFGGGTKLEIK
# notes: Murine hybridoma antibody
# B7: 5D12 antibody (murine CD33^V-set antibody) (antibody, V domains shown)
# VH: QVQLQQSGAEVVKPGASVKISCRASGYAFSNYWMNWVKQRPGKGLEWIGQIYPGNFNTDYNGQFKGKATLTVDKSSNTAYMQLSSLTSEDSAVYFCARFFDFGAYFTLDYWGQGTSVTVSS
# VL: DIKMTQSPSSIYASLGERVTINCKASQDIKSYLSWYQQKPWKSPKTLIYYATTLADGVPSRFSGSGSGQDYSLTISSLESDDTATYYCLHHGESPWTFGEGTKLEIK
# notes: Murine hybridoma antibody
# Assays:
# [1] = target: T1, purified extracellular domain of human CD33^ΔE2 with C-terminal His and Avi tags (human, UniProt P20138 18-259); assay: SPR (Carterra), antibody or hybridoma supernatant captured on a protein A/G lawn, CD33ΔE2 antigen in solution
# T1 construct: extracellular domain; also called CD33^ΔE2 ectodomain; not shown: C-terminal His and Avi tags
# T1 sequence (P20138 140-259 limits assumed, stated change not applied): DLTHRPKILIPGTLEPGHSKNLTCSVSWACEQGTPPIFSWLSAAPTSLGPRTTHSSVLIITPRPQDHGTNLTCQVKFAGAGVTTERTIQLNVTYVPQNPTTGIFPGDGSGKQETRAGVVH
# Excerpt: (§1) FIG. 8. A kinetic profile was established from purified anti-CD33 antibodies and hybridoma supernatants by use of surface plasmon resonance technology (SPR) from the Carterra instrument. SPR is a great way to estimate the kinetic rate constants of binding interactions, of which can fit to a 1:1 Langmuir binding model to determine the on-rate (Kₒₙ) and off-rate (Koff). Both of these rate parameters allow for the calculation of the dissociation rate constant (Kd), referred to as binding affinity. The antibody clones were captured as an array on a protein A/G lawn, which was immobilized to a HC30M chip. The first kinetic experiment used a CD33^FL antigen which started at a concentration of 2 μM preceding a 4-fold titration to 2 nM. Following 10 HBSTE buffer blanks, 6 injections from low to high concentrations were subsequently flowed over the array to assess kinetics of each clone printed to the array, 1-min baseline, 5-min association, 10-min dissociation. The chip was then regenerated with 0.85% phosphoric acid pH 1.7 for a fresh reprint of the same array of clones to the protein A/G lawn, in case any lingering antigen stayed bound to the array preventing an interaction with the 2nd antigen of interest, of which CD33^ΔE2 flowed over the array of antibodies. […]
# [2] = target: T2, purified extracellular domain of human CD33^FL with C-terminal His and Avi tags (human, UniProt P20138 18-259); assay: SPR (Biacore); column 'CD33FL Biacore kD (nM)'
# T2 construct: also called CD33^FL ectodomain; CD33^FL antigen; not shown: C-terminal His and Avi tags
# T2 sequence (P20138 18-259): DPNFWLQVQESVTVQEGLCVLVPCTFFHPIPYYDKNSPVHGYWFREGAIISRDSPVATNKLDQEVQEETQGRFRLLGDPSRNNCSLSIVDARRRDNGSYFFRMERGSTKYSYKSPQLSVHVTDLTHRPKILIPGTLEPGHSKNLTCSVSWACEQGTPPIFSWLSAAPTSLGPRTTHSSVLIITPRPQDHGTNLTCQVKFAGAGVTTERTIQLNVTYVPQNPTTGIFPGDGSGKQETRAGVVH
# [3] = target: T2, purified extracellular domain of human …; assay: SPR (Carterra), antibody captured on a protein A/G lawn, CD33FL antigen in solution; column 'CD33FL kD (nM), 1 µg/mL' (purified antibody)
# Excerpt: (§2) FIG. 8. A kinetic profile was established from purified anti-CD33 antibodies and hybridoma supernatants by use of surface plasmon resonance technology (SPR) from the Carterra instrument. SPR is a great way to estimate the kinetic rate constants of binding interactions, of which can fit to a 1:1 Langmuir binding model to determine the on-rate (Kₒₙ) and off-rate (Koff). Both of these rate parameters allow for the calculation of the dissociation rate constant (Kd), referred to as binding affinity. The antibody clones were captured as an array on a protein A/G lawn, which was immobilized to a HC30M chip. The first kinetic experiment used a CD33^FL antigen which started at a concentration of 2 μM preceding a 4-fold titration to 2 nM. Following 10 HBSTE buffer blanks, 6 injections from low to high concentrations were subsequently flowed over the array to assess kinetics of each clone printed to the array, 1-min baseline, 5-min association, 10-min dissociation. The chip was then regenerated with 0.85% phosphoric acid pH 1.7 for a fresh reprint of the same array of clones to the protein A/G lawn, in case any lingering antigen stayed bound to the array preventing an interaction with the 2nd antigen of interest, of which CD33^ΔE2 flowed over the array of antibodies. Carterra kinetic software was used to process the data to fit the raw data to kinetic curves for each concentration of antigen injected over the array.
# [4] = target: T2, purified extracellular domain of human …; assay: SPR (Carterra), antibody captured on a protein A/G lawn, CD33FL antigen in solution; column 'CD33FL kD (nM), 4 µg/mL' (purified antibody)
# Excerpt: as §2
# [5] = target: T2, purified extracellular domain of human …; assay: SPR, Biacore T100, 25 C; 1H7 captured on anti-mouse IgG, purified CD33^FL ectodomain as analyte; target CD33^FL (full-length ectodomain)
# Protocol: (§3) FIG. 9. SPR assessment of purified extracellular domains from CD33^FL or CD33^ΔE2 binding to captured 1H7. Black lines are data and gray lines are the model fits. SPR experiments were performed at 25° C. on a Biacore T100 (Cytiva) using a running buffer of 10 mM HEPES, pH 7.4, 150 mM NaCl, 3 mM EDTA, 0.05% surfactant P20 with 0.1 mg/mL bovine serum albumin. Rabbit anti-mouse IgG was amine coupled to 2 flow cells of a Series S CM5 chip (7300 RUs). 1H7 at 0.2 μg/mL was injected at 10 μL/min over 1 flow cell of immobilized anti-mouse IgG for either 2 mins or 5 mins to capture 94 or 163 RUs of antibody for the CD33^FL and CD33^ΔE2 binding experiments, respectively. Purified ectodomains for CD33^FL and CD33^ΔE2 (engineered with C-terminal His and Avi tags) were run as concentration series at 35 μL/min over both the captured antibody and anti-mouse IgG alone (reference) surfaces. CD33^FL was injected for 10 mins and allowed to dissociate for 15 mins. CD33^ΔE2 was injected for 7 mins and dissociated for 7 mins. Ectodomain concentrations (serial 2-fold dilutions starting at 75 nM for CD33^FL and 2 μM for CD33^ΔE2) were run in duplicate, randomized, and included a buffer blank every 4th injection. The CM5 chip was regenerated with 10 mM glycine, pH 1.7 for 3 minutes at 20 μL/min and 1H7 recaptured prior to each CD33 injection. Data was double referenced and analyzed in BiaEval 2.0.4.
# [6] = target: T1, purified extracellular domain of human …; assay: SPR (Carterra), antibody captured on a protein A/G lawn, CD33ΔE2 antigen in solution; column 'CD33ΔE2 kD (nM), 4 µg/mL' (purified antibody)
# Excerpt: as §1
# [7] = target: T3, artificial CD33 with deletion of exons 3 and 4, lacking the C2-set domain (CD33^ΔE3-4), on cells (human, UniProt P20138 1-364); assay: flow cytometry on engineered cells
# T3 construct: it probably still carries the CD33 signal peptide (aa 1-17), which is not part of the protein on cells; also called CD33 V-set construct (exon 3 and 4 deleted)
# T3 sequence (P20138 other isoform, or with tags, fused parts or gaps mutant limits assumed): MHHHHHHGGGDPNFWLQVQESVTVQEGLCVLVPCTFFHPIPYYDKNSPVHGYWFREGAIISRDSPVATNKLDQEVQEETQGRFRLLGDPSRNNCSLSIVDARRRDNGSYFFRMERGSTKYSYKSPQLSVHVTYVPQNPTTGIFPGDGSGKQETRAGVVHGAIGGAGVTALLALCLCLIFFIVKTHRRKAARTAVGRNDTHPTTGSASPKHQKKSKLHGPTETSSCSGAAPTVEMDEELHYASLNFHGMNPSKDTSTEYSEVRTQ
# [8] = target: T1, purified extracellular domain of human …; assay: SPR, Biacore T100, 25 C; 1H7 captured on anti-mouse IgG, purified CD33^ΔE2 ectodomain as analyte; target CD33^ΔE2 (lacking V-set domain)
# Protocol: as §3
# [9] = target: T1, purified extracellular domain of human …; assay: SPR (Carterra), antibody captured on a protein A/G lawn, CD33ΔE2 antigen in solution; column 'CD33ΔE2 kD (nM), 1 µg/mL' (purified antibody)
# Excerpt: as §1
# [10] = target: T4, human full-length CD33 (CD33^FL) on cells (human, UniProt P20138 18-364); assay: flow cytometry, murine antibody, control = secondary antibody only; ML-1 parental cells (endogenous CD33) and REH cells expressing CD33FL
# T4 construct: Used for engineered REH/ML-1 sublines overexpressing CD33^FL and for endogenous CD33 on parental AML cell lines; also called Siglec-3
# T4 sequence (P20138 18-364): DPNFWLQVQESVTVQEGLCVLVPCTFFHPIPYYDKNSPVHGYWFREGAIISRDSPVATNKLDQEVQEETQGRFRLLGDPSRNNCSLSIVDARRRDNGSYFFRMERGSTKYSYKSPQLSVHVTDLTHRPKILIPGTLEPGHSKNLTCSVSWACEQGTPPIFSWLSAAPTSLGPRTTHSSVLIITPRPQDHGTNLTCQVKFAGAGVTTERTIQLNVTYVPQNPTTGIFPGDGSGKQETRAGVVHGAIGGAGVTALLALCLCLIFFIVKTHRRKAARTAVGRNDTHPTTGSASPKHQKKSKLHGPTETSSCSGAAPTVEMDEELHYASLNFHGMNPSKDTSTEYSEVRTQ
# [11] = target: T4, human full-length CD33 (CD33^FL) on …; assay: flow cytometry, murine antibody, control = secondary antibody only; REH cells expressing CD33FL
# [12] = target: T4, human full-length CD33 (CD33^FL) on …; assay: as above; remark: listed apart in the source
binder,measurement,setting,value
B1,binding result,[1],no binding
same,Kd,[2],8 nM
same,Kd,[3],11 nM
same,Kd,[4],6.1 nM
B2,Kd,[5],5.35 nM
same,Kd,[6],7.6 nM
same,binding result,[7],no binding
same,Kd,[3],0.674 nM
same,Kd,[8],280 nM
same,Kd,[4],4.2 nM
same,Kd,[9],5.3 nM
B3,binding result,[10],binds
B4,binding result,[10],binds
B5,binding result,[11],no binding
B6,binding result,[12],binds
B7,binding result,[1],no binding
same,Kd,[2],0.122 nM
same,Kd,[3],2.3 nM
same,Kd,[4],1.1 nM
